Reference: the supplement of paper PMC10065799, “High-throughput profiling of sequence recognition by tyrosine kinases and SH2 domains using bacterial peptide display” (eLife, 2023)

target: Fes (UniProt P07332); assay: phosphorylation enrichment, bacterial display (enrichment ratio); higher = better substrate or ligand; peptides without Tyr show the background
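Also: 11-residue human phosphosite peptides and single-mutation variants displayed on the E. coli surface, counted by deep sequencing, each peptide's frequency after selection divided by its frequency in the unselected input library; frequency after pTyr selection over input frequency; kinase dosed for 20-30% of maximal phosphorylation in three min.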

Sequence of Fes (P07332 whole entry, looked up): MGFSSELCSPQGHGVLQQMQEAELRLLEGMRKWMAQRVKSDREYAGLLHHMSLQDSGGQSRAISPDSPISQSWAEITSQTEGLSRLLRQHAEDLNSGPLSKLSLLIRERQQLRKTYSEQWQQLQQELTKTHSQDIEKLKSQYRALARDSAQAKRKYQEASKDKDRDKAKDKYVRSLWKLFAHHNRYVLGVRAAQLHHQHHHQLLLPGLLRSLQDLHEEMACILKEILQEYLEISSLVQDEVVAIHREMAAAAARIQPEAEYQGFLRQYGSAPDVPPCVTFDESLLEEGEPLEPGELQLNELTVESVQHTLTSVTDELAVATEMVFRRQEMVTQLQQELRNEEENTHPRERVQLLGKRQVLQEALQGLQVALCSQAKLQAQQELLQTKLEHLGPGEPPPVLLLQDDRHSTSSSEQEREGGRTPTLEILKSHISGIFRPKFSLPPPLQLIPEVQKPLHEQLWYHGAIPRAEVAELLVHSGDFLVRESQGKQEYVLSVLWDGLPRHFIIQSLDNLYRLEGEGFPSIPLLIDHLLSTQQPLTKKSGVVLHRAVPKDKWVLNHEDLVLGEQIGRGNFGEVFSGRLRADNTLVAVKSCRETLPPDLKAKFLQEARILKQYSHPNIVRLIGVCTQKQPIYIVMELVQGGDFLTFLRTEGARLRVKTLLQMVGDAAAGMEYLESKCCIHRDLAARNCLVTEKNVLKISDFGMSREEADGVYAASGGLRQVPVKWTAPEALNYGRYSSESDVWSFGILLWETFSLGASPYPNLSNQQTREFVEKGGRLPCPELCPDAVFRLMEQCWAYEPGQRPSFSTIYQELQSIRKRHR

| Sequence | phosphorylation enrichment |
| --- | --- |
| VYPATYHPDHW [EFCAB12_Y544] | 0.662 |
| CNPLRYPVLMS [OR2T1_Y182] | 0.913 |
| ELTAKYLNFFR [P3H4_Y181_Q186R_YF] | 0.778 |
| DSIRDYEDGTE [CLNS1A_Y214_M218T] | 1.58 |
| CERFSYYGMKA [SLC15A2_Y60] | 1.04 |
| MGCVNYGAYIN [GLB1_Y485_R482C] | 1.37 |
| FPPDGYSRHCE [CTNND1_Y213_Y217C_YF] | 0.904 |
| AIIEEYLHLSD [EIF4G1_Y1253_N1257S] | 1.4 |
| EQSNPYMVLDI [ROCK2_Y1197] | 1.09 |
| QCQLKYSETPF [SIX6OS1_Y129_Y125C] | 1.32 |
| RTLIRYANLSN [BEST1_Y131_G135S] | 1.02 |
| NPQKSCFIRLY [WAS_Y83_Y83C] | 1.14 |
| LERYIYNREEL [HLA-DPB1_Y59_F64L] | 0.944 |
| RIDPDYMGRVR [IGSF9_Y81_V82M] | 0.572 |
| SRIWVYNHYRC [BRCA2_Y2621_W2626C] | 1.11 |
| FSVDGYDSSVR [KCNQ1_Y461] | 0.773 |

target: EPHB2 (UniProt P29323); assay: as above

| Sequence | phosphorylation enrichment |
| --- | --- |
| VYPATYHPDHW [EFCAB12_Y544] | 0.385 |
| CNPLRYPVLMS [OR2T1_Y182] | 0.567 |
| ELTAKYLNFFR [P3H4_Y181_Q186R_YF] | 0.425 |
| DSIRDYEDGTE [CLNS1A_Y214_M218T] | 0.565 |
| CERFSYYGMKA [SLC15A2_Y60] | 0.611 |
| MGCVNYGAYIN [GLB1_Y485_R482C] | 0.83 |
| FPPDGYSRHCE [CTNND1_Y213_Y217C_YF] | 0.542 |
| AIIEEYLHLSD [EIF4G1_Y1253_N1257S] | 0.698 |
| EQSNPYMVLDI [ROCK2_Y1197] | 0.616 |
| QCQLKYSETPF [SIX6OS1_Y129_Y125C] | 0.722 |
| RTLIRYANLSN [BEST1_Y131_G135S] | 0.71 |
| NPQKSCFIRLY [WAS_Y83_Y83C] | 0.503 |
| LERYIYNREEL [HLA-DPB1_Y59_F64L] | 0.407 |
| RIDPDYMGRVR [IGSF9_Y81_V82M] | 0.367 |
| SRIWVYNHYRC [BRCA2_Y2621_W2626C] | 0.587 |
| FSVDGYDSSVR [KCNQ1_Y461] | 0.513 |

tested on: AncSZ; assay: as above

| Sequence | phosphorylation enrichment |
| --- | --- |
| VYPATYHPDHW [EFCAB12_Y544] | 0.554 |
| CNPLRYPVLMS [OR2T1_Y182] | 0.839 |
| ELTAKYLNFFR [P3H4_Y181_Q186R_YF] | 0.684 |
| DSIRDYEDGTE [CLNS1A_Y214_M218T] | 1.55 |
| CERFSYYGMKA [SLC15A2_Y60] | 1.59 |
| MGCVNYGAYIN [GLB1_Y485_R482C] | 1.32 |
| FPPDGYSRHCE [CTNND1_Y213_Y217C_YF] | 0.784 |
| AIIEEYLHLSD [EIF4G1_Y1253_N1257S] | 1.24 |
| EQSNPYMVLDI [ROCK2_Y1197] | 1.19 |
| QCQLKYSETPF [SIX6OS1_Y129_Y125C] | 1.24 |
| RTLIRYANLSN [BEST1_Y131_G135S] | 0.774 |
| NPQKSCFIRLY [WAS_Y83_Y83C] | 1.02 |
| LERYIYNREEL [HLA-DPB1_Y59_F64L] | 0.713 |
| RIDPDYMGRVR [IGSF9_Y81_V82M] | 0.649 |
| SRIWVYNHYRC [BRCA2_Y2621_W2626C] | 0.927 |
| FSVDGYDSSVR [KCNQ1_Y461] | 0.693 |

target: FGFR1 (UniProt P11362); assay: as above
Sequence (P11362 whole entry, looked up): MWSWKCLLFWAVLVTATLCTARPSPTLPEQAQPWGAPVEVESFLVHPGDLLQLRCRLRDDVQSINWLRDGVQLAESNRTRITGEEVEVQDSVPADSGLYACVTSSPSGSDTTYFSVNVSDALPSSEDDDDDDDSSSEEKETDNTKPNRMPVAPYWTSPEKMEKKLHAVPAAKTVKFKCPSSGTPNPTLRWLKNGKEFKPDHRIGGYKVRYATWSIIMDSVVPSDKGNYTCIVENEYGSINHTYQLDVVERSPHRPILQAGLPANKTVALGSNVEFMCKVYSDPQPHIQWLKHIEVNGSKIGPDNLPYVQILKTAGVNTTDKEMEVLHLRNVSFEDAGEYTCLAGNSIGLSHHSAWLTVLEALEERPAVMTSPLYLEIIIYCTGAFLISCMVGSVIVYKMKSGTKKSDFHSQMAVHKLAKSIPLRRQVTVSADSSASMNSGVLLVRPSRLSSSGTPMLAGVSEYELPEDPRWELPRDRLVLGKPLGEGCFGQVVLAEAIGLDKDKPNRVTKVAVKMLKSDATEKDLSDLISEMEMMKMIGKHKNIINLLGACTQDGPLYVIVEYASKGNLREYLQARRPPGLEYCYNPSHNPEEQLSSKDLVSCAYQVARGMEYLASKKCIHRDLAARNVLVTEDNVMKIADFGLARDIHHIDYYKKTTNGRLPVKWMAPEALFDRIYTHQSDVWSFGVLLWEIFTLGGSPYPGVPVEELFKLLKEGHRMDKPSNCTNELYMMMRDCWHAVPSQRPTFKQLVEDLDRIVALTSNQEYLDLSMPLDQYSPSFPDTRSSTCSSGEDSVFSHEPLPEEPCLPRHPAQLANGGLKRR

| Sequence | phosphorylation enrichment |
| --- | --- |
| VYPATYHPDHW [EFCAB12_Y544] | 0.564 |
| CNPLRYPVLMS [OR2T1_Y182] | 0.476 |
| ELTAKYLNFFR [P3H4_Y181_Q186R_YF] | 0.394 |
| DSIRDYEDGTE [CLNS1A_Y214_M218T] | 0.511 |
| CERFSYYGMKA [SLC15A2_Y60] | 3.72 |
| MGCVNYGAYIN [GLB1_Y485_R482C] | 0.469 |
| FPPDGYSRHCE [CTNND1_Y213_Y217C_YF] | 0.477 |
| AIIEEYLHLSD [EIF4G1_Y1253_N1257S] | 0.592 |
| EQSNPYMVLDI [ROCK2_Y1197] | 1.11 |
| QCQLKYSETPF [SIX6OS1_Y129_Y125C] | 0.68 |
| RTLIRYANLSN [BEST1_Y131_G135S] | 0.801 |
| NPQKSCFIRLY [WAS_Y83_Y83C] | 0.441 |
| LERYIYNREEL [HLA-DPB1_Y59_F64L] | 0.41 |
| RIDPDYMGRVR [IGSF9_Y81_V82M] | 0.344 |
| SRIWVYNHYRC [BRCA2_Y2621_W2626C] | 0.51 |
| FSVDGYDSSVR [KCNQ1_Y461] | 0.427 |

target: Jak2 (UniProt O60674); assay: as above
Sequence (O60674 whole entry, looked up): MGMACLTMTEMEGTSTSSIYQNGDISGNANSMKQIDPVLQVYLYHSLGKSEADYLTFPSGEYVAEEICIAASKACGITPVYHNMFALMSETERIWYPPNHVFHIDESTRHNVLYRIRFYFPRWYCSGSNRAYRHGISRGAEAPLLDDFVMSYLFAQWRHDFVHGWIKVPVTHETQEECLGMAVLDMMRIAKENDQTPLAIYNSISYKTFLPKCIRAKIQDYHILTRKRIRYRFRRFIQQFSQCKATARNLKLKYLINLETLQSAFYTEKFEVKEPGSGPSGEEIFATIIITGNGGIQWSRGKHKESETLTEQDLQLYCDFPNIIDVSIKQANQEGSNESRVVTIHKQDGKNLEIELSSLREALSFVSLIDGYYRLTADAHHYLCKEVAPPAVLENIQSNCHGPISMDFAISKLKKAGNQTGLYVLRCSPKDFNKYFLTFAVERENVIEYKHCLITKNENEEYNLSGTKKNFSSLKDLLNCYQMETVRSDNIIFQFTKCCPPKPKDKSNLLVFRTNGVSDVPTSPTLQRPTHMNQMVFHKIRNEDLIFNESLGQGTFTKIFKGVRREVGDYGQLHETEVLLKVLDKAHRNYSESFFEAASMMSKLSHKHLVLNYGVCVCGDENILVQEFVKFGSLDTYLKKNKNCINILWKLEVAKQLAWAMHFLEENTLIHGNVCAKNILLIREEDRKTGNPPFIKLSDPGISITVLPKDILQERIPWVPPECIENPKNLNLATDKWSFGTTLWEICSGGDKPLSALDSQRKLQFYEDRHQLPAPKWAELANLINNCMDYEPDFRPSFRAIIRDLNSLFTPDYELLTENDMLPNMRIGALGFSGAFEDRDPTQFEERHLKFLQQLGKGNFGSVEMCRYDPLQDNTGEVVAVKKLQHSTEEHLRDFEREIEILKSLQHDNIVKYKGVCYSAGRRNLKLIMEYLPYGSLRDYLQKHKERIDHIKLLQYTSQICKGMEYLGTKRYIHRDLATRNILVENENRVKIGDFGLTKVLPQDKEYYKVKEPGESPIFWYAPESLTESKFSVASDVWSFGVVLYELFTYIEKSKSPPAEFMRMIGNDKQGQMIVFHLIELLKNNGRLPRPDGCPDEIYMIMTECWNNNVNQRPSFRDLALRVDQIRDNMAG

| Sequence | phosphorylation enrichment |
| --- | --- |
| VYPATYHPDHW [EFCAB12_Y544] | 0.639 |
| CNPLRYPVLMS [OR2T1_Y182] | 0.758 |
| ELTAKYLNFFR [P3H4_Y181_Q186R_YF] | 0.632 |
| DSIRDYEDGTE [CLNS1A_Y214_M218T] | 1.35 |
| CERFSYYGMKA [SLC15A2_Y60] | 3.12 |
| MGCVNYGAYIN [GLB1_Y485_R482C] | 1.56 |
| FPPDGYSRHCE [CTNND1_Y213_Y217C_YF] | 0.741 |
| AIIEEYLHLSD [EIF4G1_Y1253_N1257S] | 1.19 |
| EQSNPYMVLDI [ROCK2_Y1197] | 1.24 |
| QCQLKYSETPF [SIX6OS1_Y129_Y125C] | 1.01 |
| RTLIRYANLSN [BEST1_Y131_G135S] | 0.792 |
| NPQKSCFIRLY [WAS_Y83_Y83C] | 1.07 |
| LERYIYNREEL [HLA-DPB1_Y59_F64L] | 0.731 |
| RIDPDYMGRVR [IGSF9_Y81_V82M] | 0.643 |
| SRIWVYNHYRC [BRCA2_Y2621_W2626C] | 0.934 |
| FSVDGYDSSVR [KCNQ1_Y461] | 0.672 |

target: MERTK (UniProt Q12866); assay: as above
Sequence (Q12866 whole entry, looked up): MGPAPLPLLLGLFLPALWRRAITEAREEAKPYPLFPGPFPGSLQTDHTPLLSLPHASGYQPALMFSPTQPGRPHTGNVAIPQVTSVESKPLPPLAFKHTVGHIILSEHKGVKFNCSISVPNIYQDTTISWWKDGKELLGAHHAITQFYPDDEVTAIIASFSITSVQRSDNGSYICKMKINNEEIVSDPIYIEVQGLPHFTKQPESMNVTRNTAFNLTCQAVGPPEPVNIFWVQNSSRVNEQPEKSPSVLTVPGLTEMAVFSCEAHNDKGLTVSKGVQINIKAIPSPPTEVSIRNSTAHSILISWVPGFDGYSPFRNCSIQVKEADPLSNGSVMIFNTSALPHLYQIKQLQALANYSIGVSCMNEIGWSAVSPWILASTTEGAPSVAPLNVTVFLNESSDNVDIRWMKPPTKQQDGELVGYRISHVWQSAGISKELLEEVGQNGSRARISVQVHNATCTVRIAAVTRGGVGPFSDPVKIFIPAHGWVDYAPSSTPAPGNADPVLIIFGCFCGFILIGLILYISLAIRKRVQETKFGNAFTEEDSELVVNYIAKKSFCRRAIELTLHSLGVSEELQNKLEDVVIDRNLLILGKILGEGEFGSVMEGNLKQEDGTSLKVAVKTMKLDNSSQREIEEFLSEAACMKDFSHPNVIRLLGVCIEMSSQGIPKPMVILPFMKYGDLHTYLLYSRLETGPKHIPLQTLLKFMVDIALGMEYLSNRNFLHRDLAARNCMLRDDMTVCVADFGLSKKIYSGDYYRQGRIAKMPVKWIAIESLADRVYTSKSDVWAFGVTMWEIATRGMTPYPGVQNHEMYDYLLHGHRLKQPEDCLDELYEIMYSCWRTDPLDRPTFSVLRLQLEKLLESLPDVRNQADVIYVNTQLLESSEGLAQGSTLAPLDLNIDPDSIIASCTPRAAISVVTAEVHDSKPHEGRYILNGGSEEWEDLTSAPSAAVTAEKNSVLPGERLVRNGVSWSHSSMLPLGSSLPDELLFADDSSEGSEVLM

| Sequence | phosphorylation enrichment |
| --- | --- |
| VYPATYHPDHW [EFCAB12_Y544] | 0.296 |
| CNPLRYPVLMS [OR2T1_Y182] | 0.428 |
| ELTAKYLNFFR [P3H4_Y181_Q186R_YF] | 0.435 |
| DSIRDYEDGTE [CLNS1A_Y214_M218T] | 0.959 |
| CERFSYYGMKA [SLC15A2_Y60] | 0.665 |
| MGCVNYGAYIN [GLB1_Y485_R482C] | 0.483 |
| FPPDGYSRHCE [CTNND1_Y213_Y217C_YF] | 0.383 |
| AIIEEYLHLSD [EIF4G1_Y1253_N1257S] | 0.515 |
| EQSNPYMVLDI [ROCK2_Y1197] | 2.28 |
| QCQLKYSETPF [SIX6OS1_Y129_Y125C] | 0.82 |
| RTLIRYANLSN [BEST1_Y131_G135S] | 0.631 |
| NPQKSCFIRLY [WAS_Y83_Y83C] | 0.396 |
| LERYIYNREEL [HLA-DPB1_Y59_F64L] | 0.371 |
| RIDPDYMGRVR [IGSF9_Y81_V82M] | 0.442 |
| SRIWVYNHYRC [BRCA2_Y2621_W2626C] | 0.377 |
| FSVDGYDSSVR [KCNQ1_Y461] | 0.311 |

tested on: Fer (mouse); assay: as above

| Sequence | phosphorylation enrichment |
| --- | --- |
| VYPATYHPDHW [EFCAB12_Y544] | 0.419 |
| CNPLRYPVLMS [OR2T1_Y182] | 0.453 |
| ELTAKYLNFFR [P3H4_Y181_Q186R_YF] | 0.335 |
| DSIRDYEDGTE [CLNS1A_Y214_M218T] | 0.766 |
| CERFSYYGMKA [SLC15A2_Y60] | 0.558 |
| MGCVNYGAYIN [GLB1_Y485_R482C] | 0.571 |
| FPPDGYSRHCE [CTNND1_Y213_Y217C_YF] | 0.485 |
| AIIEEYLHLSD [EIF4G1_Y1253_N1257S] | 0.6 |
| EQSNPYMVLDI [ROCK2_Y1197] | 3.79 |
| QCQLKYSETPF [SIX6OS1_Y129_Y125C] | 0.798 |
| RTLIRYANLSN [BEST1_Y131_G135S] | 0.566 |
| NPQKSCFIRLY [WAS_Y83_Y83C] | 0.481 |
| LERYIYNREEL [HLA-DPB1_Y59_F64L] | 0.444 |
| RIDPDYMGRVR [IGSF9_Y81_V82M] | 0.4 |
| SRIWVYNHYRC [BRCA2_Y2621_W2626C] | 0.482 |
| FSVDGYDSSVR [KCNQ1_Y461] | 0.36 |

target: Fyn (UniProt P06241); assay: as above
Sequence (P06241 whole entry, looked up): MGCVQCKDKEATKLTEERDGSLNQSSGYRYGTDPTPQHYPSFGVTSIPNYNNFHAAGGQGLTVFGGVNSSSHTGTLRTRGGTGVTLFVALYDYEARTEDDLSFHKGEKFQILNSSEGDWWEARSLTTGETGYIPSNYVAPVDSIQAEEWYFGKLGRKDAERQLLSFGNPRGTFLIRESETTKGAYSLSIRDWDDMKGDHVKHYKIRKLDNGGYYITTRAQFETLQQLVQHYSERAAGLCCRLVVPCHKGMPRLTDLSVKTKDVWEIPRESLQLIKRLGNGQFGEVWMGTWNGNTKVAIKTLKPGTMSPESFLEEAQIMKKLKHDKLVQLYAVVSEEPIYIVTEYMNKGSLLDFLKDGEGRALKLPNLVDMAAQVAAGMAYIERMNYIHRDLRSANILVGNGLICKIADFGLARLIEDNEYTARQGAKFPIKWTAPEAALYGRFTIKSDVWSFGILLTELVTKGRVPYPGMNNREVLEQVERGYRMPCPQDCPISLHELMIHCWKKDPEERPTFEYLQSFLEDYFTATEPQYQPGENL

| Sequence | phosphorylation enrichment |
| --- | --- |
| VYPATYHPDHW [EFCAB12_Y544] | 0.465 |
| CNPLRYPVLMS [OR2T1_Y182] | 0.5 |
| ELTAKYLNFFR [P3H4_Y181_Q186R_YF] | 0.444 |
| DSIRDYEDGTE [CLNS1A_Y214_M218T] | 0.602 |
| CERFSYYGMKA [SLC15A2_Y60] | 0.689 |
| MGCVNYGAYIN [GLB1_Y485_R482C] | 0.578 |
| FPPDGYSRHCE [CTNND1_Y213_Y217C_YF] | 0.431 |
| AIIEEYLHLSD [EIF4G1_Y1253_N1257S] | 0.635 |
| EQSNPYMVLDI [ROCK2_Y1197] | 2.5 |
| QCQLKYSETPF [SIX6OS1_Y129_Y125C] | 0.558 |
| RTLIRYANLSN [BEST1_Y131_G135S] | 0.79 |
| NPQKSCFIRLY [WAS_Y83_Y83C] | 0.504 |
| LERYIYNREEL [HLA-DPB1_Y59_F64L] | 0.987 |
| RIDPDYMGRVR [IGSF9_Y81_V82M] | 0.487 |
| SRIWVYNHYRC [BRCA2_Y2621_W2626C] | 0.396 |
| FSVDGYDSSVR [KCNQ1_Y461] | 0.461 |
